How the values were obtained:
[1] = molecular target: factor H binding protein (wild type, variant 1) (UniProt E6MV22); assay: SPR
[2] = molecular target: factor H binding protein (wild type, variant 1) (UniProt E6MV22); assay: SPR; sensorgram
[3] = molecular target: fHbp Variant 2 (Neisseria meningitidis); assay: SPR
[4] = molecular target: fHbp Variant 3 (Neisseria meningitidis); assay: SPR

fH678, sequence (P08603 321-509): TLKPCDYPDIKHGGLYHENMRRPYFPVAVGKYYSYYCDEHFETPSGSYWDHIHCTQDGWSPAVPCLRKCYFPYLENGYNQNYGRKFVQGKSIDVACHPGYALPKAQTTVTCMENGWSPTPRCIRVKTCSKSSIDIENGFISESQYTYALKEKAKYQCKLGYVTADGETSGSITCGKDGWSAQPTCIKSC

Work on fH678 (from UniProt P08603 321-509) yielded a Kd [1] of 5 nM and a Kd [2] of 4.69 nM.

With FH67 N339E M340S the Kd [3] was 44 nM and the Kd [4] was 165 nM.
